Reference: patent US9539338B2, “Polymer-based protein engineering methods to rationally tune enzyme activity, pH-dependence and stability” (Carnegie Mellon University, priority 2013, dated 2017)

Target: T1, Suc-AAPF-pNA (Bos taurus, UniProt P00766)
T1 construct: purchased Sigma Aldrich; host or cells: bovine pancreas
Assay: Enzyme kinetic assay: hydrolysis of Suc-AAPF-pNA at pH 5-10 (native CT, CT-PDMAEMA conjugates)
Format: biochemical
Experimental: N-Succinyl-Ala-Ala-Pro-Phe p-nitroanilide (0 to 50 μL of 9.60 mM in DMSO) was added to sodium phosphate buffer (990 to 940 μL of 100 mM, pH 5-10). Native CT or conjugates solution (10 μL of 4.0 μM) was added to the substrate solution. The initial rate of hydrolysis of the peptide substrate was monitored by recording the increase in absorption at 412 nm using a UV-VIS spectrometer. The Michaelis-Menten parameters (kcat, Km and kcat/Km) were determined by non-linear curve fitting (equation for Michaelis-Menten parameters) of plots of initial rate versus substrate concentration using the Enzfitter software.

[1] = pH 5.0, 100 mM sodium phosphate
[2] = pH 6.0, 100 mM sodium phosphate
[3] = pH 7.0, 100 mM sodium phosphate
[4] = pH 8.0, 100 mM sodium phosphate
[5] = pH 9.0, 100 mM sodium phosphate
[6] = pH 10.0, 100 mM sodium phosphate

α-Chymotrypsin (CT) from bovine pancreas (type II) [Native CT]
Km [1]: 212 µM
kcat [1]: 2.28 ± 0.36 s⁻¹
Km [2]: 189 µM
kcat [2]: 12.13 s⁻¹
Km [3]: 84.1 µM
kcat [3]: 21.54 s⁻¹
Km [4]: 55.2 µM
kcat [4]: 26.67 s⁻¹
Km [5]: 104 µM
kcat [5]: 29.49 s⁻¹
Km [6]: 258 µM
kcat [6]: 27.69 s⁻¹
